Experiment: label from the status in PepcDB records
For “LADYSTEELEKIADKFRSDTSGIRGTKDFTSPEELYDELKKEIKKYHPSDDTSLVDKAYRVAYDAHKGQARKSGEPYIIHPLCVAIILAELELDKETIAAGLLHDVLEDTIMTMDEMRAEFGDDVAHLVDGVTKLKHLHLTDSTKDPKDKNADRLEMQAENLRKMFLAMAKDIRVILIKLADRLHNMRTLKYQSKEAQQRIARETQDIYCPIAQRLGISKIKIELEDLCMKYLYPDAYYDLVEKVALRKTERDTYIQGLVNDVKKYVSDAGIKAEIYGRAKHFFSIYKKMVNQDKTIDQIYDLFAIRILVDTIPDCYAVLGIIHEKYKPIPGRFKDYIAMPKQNMYQSLHTTLIGPSGQPFEIQIRTYEMHRTAEYGIAAHWKYKETNNGNATTTTVTEEEKLSWLRQILEWQQDMSDNKEFMTLLKSDLNLFSDNVFAFTPSGDVKNLPKGSTPIDFAYSIHSAVGNKMVGAKVNGKLVPIDYVIKNGDQIEIITSQNSKGPSRDWLKVVKSTQAKNKINQWFRSELKEENIQHGKDLIAAYAKAKGINFAEINKPEYQEKIRRKYGFHDWNSCLATVGHGGLKESQIVNRMYDEYKKDHVVPVTDADVLGSIAEKQQAAAGTQPEHKSKSGIVVHGLYDVAVHFSKCCNPVPGDEIVGFVTRGRGISIHRTDCVNIINLSKIEKDRLIEAEWQDTALMDNGAEYQADLKIFCHDRPGLLVDITKIFTEKEINISGIQSKTSKQGIATIEVFFNIKGRDQIKVLVEKLRQIESVIDVERTTG”, the protein production was “failed”.
In the case of “LANKQIESRIIQFDVEFPSDEVAKQLSIEKTVPVYHIIRLRKVEGEPYVIEETYMPSNVISELNEDVLHGSVYRHITETLKLTIAGSHRKIRADKSSALDREYLECAPDDPVLEVEQVAFLNTGEPFEYSFARHRYDKFVFSSVHIRK”, the protein production is reported as “failed”.
With “LAQEKNYDLPEGVMVYVIEGPFFFGAVETFQSALANTHTDPKVLIIRMRWVPFIDVTGLQAMEEIILNLQKRGVRVLLSEANPLVDAKLRKMGIVQLIGEQNYYKEFSQALDVCRINDSDRKSQPPFEVAKPLASVTQ” the protein production was “not failed”.
For “LDTIPTTYVDAGSVFGKTGDAEKVLNGGWNYLMETFNSYANPGYGAMLRANDAMGSDVVLNSKYGFRTHNEFSAIYGKGGTNTLSWLLAYRVINDCNGVLDNIDAAEGTQADRNRIKGQALALRGFLYLHLASCYSFAIDKDPDAVCAPIYTQSTDETIAAEGKPASSVSEVYAQSINDLEEALELIPETYVRDAKHKIDNEVVLGILSRACLYARQWEKAKTYSDKLLAKDNYLMTESEYKAGFNSVDNKEWIWGHAQTNDQSNASYQFHYLDTTTKGSYYYSFNVDPYFRDLFEDGDYRKEMLFWATDPGADVESAAYVWMRNSKFRFRDIENQLGDIVLMRVAEIYLINAEAKAHLNDPDAINKLNDLKTARGAKTIHTNLSQQDLLETIWLERRKELWGEGFSLIDIIRNQQTVVRNAYPEGPIDYIYTDENGQTHTLKKKTQGHRFFNFPDKSAFCPNSKYYLYRITDSEELANKNLYKDHPKLSIYTK”, the protein production was “not failed”.
For “LDYQRLYGTRCFSCDQFIEGEVVSALGKTYHPDCFVCAVCRLPFPPGDRVTFNGKECMCQKCSLPVSV”, the protein production was “not failed”.
For “LEAVAPERPRCAYCSAEASKRCSRCQNEWYCCRECQVKHWEKHGKTC”, the protein production was “not failed”.
With “LECDGKVNICCKKQFFVSFKDIGWNDWIIAPSGYHANYCEGECPSHIAGTSGSSLSFHSTVINHYRMRGHSPFANLKSCCVPTKLRPMSMLYYDDGQNIIKKDIQNMIVEECGCS” the protein production was “not failed”.
In the case of “LETSWIKPGQASWEWWNDAAPYGPDVNFVSGYNLETYKYYIDFASKYGIRYIIMDEGWAKSTRDPYTPNAKVDVHELIRYAEKKNVGIVLWLTWLTVENNMDLFKTFSEWGVKGVKIDFMDRSDQWMMNFYERVAAEAAKYKLFVDFHGSVSPKGLEYKYPNVLSYEGVRGMEQMGGATPDNSIFMPFMRNAVGAMDYTPGAM”, the protein production is reported as “failed”.
With “LETYNTCDTPPPLNNLTPYRDDGKEALKFYTDPSYFFDLWKEKMLQDTKDIMKEKRKHRKEKKDNPNRGNVNPRKIKTRKEEWEKMKMGQEF” the protein production was “failed”.
In the case of “LFGVTSELSKDGRERIYRVEGQLFYASVEDFMAAFDFREALDRVVIDVSRAHIWDISSVQALDMAVLKFRREGAEVRIVGMNEASETMVDRLAIHD”, the protein production is reported as “not failed”.
In the case of “LGEICKAVLVDPSSNLTLDHWADKCGLSRRTLTRLFRRETGQSFSGWRQRVRLLEALARLGAGETVTGVALDVGYDSPSAFAAMFKRELGAAPRHYLR”, the protein production is reported as “failed”.
For “LGKILQGVVVVLSGFQNPFRSELRDKALELGAKYRPDWTRDSTHLICAFANTPKYSQVLGLGGRIVRKEWVLDCH”, the protein production was “failed”.
In the case of “LGNEDFNSVIQQMAQGRQIEYIDIERPSTGGLGFSVVALRSQNLGKVDIFVKDVQPGSVADRDQRLKENDQILAINHTPLDQNISHQQAIALLQQTTGSLRLIVAREPVHTKSST”, the protein production is reported as “not failed”.
For “LGVVPEVRDWFTLGDHRFLVMDFLEGRPLNSFFAERHPLLTPDPEPDAVAAYTAWALRIHRAVEQAVHAVHARGIVFNDLHVFNIMVAPDEESVSLLDFEAAAPIEEN”, the protein production was “failed”.
With “LHDTDQQGMFERGSAIVEPRFRSLLQQIGSMLGEIDNRLLVVGHTDAAQYHRAGGFAAMSNWSLSSNRAMAARLHMMQGGLAADSVLQVVGMAERAPLDKQHPLGAVNRRIELLVLTSGQAQA” the protein production was “failed”.
In the case of “LHYVHVGNKKSPNTLLFVHGSGCNLKIFGELEKYLEDYNCILLDLKGHGESKGQCPSTVYGYIDNVANFITNSEVTKHQKNITLIGYSMGGAIVLGVALKKLPNVRKVVSLSGGARFDKLDKDFMEKIYHNQLDNNYLLECIGGIDNPLSEKYFETLEKDPDIMINDLIACKLIDLVDNLKNIDIPVKAIVAKDELLTLVEYSEIIKKEVENSELKIFETGKHFLLVVNAKGVAEEIKNFI”, the protein production is reported as “failed”.
For “LKLTKIIVSEAGASVYSASEIAANEFPDLDVSLRGAVSIARRLQDPLAELVKIEAKSIGVGQYQHDVNQAKLARCLDGVVEDCVNAVGVDINTASAALLSHISGLNDTLAKNIVQFRDEHGAFTNRNQLKNIHRMGEKAFQQAAGFLRIMNGDNALDASCVHPEAYPLVEKIISDKKVSIKEIIGNRELLQSINAEQYVDENFG”, the protein production was “failed”.
In the case of “LLEIKRKGAKRGSQHYSDRTCARCQESLGRLSPKTNTCRGCNHLVCRDCRIQESNGTWRCKVC”, the protein production is reported as “not failed”.
For “LLNMKRAETGKALSPLQIQELQYMLEDFSPELIHEALKEAVSQGKANFAYIKVILNRWKQDNLLTVELVRN”, the protein production was “failed”.
With “LNDLKESSNNRKARVLYDYDAANSTELSLLADEVITVFSVVGMDSDWLMGERGNQKGKVPITYLELLN” the protein production was “not failed”.
In the case of “LNTAPIFMPNTVGGYFPGPRTFPGNKKILYNSSTMVKALSRGYVVVSAGLRGRTLTNEKGEFIGKAPAFIIDMKAAIRYIKFNKDNFPGDVNKIITNGTSAGGAISALIGASGNNVFFEKELDEIGAADSSDNIFAVSAYCPIHNLENADAAYEWQFNGINDWHTQKIDIKNGKAEFSPLNGQLNELEKQLSSKLKNQFIEYLNSLRLRNPDGDYLTLNKIGEGNFLDLTKKFLIKSAQTEIEKGNELNNPNFLDIRNGKVVSLKWKAYLRYITRMKKVPAFDDLGLNNPENDLFGDIKIKAKHFTEIGQKYSEKTAKKADPELVTAINPLNYLNNQSNSLIAKHWRIRHGAADRDTSFAVPIILATTLQNMNLDIDFFMPWAKPHSGDYDLIDLFDWIDSLVKEK”, the protein production is reported as “failed”.
For “LPAGLYFVGTPIGSARDITLRALDVLASAEVIAAEDTRSLRHLLDIHGVPLDGRRVLAYHDHSGAGAQARLLEALAEGKSVAYASEAGMPLIADPGFELSRAAAEAGHMVTC”, the protein production was “not failed”.
In the case of “LPAHSWLGSFQAAGFDLVGQAWLPEQPSATLFLLHGYYDHMGLYRHVIEWALKQGFAVISCDLPGHGLSSGERASITDFAVYQQVLEALFEQAHTLQLPHPWHLCGQSTGGAIAVDHLLHQGARSPVDGQVILLAPLVRPSSWRWSKFSYCVLRHFVNGIERRFSENTNDPAFLPFLEADPLQPRRLPTAWVGALIAWVKRIEAAPRSARRPLIVQGEADGTVDWPHNLEVLKAKFAEPQILMLPEARHHLANELPGIRQRYFDFIDQRLG”, the protein production is reported as “failed”.
For “LQQQEEETYADACDEFLDPIMSTLMCDPVVLPSSRVTVDRSTIARHLLSDQTDPFNRSPLTMDQIRPNTELKEKIQRWLAERKQQ”, the protein production was “not failed”.
In the case of “LRASEESFRQAFEYAPSGMAIAEMGGDQHGRILRTNDALCRLLGRPASAMRRYSFSDLVHPEDIGTLLRTSAEGGRAELRLGRRDGTYVWVSLRNSVVADAADGPRFLLTHVEDIEERKRRELQLAHRASHDSLTGLPNSAELRSRLSARLCRRPQSAELGAVESLDAAYAHGQYTTEHPAAYDTSGHGEQPGHGHGFDFTQGPGPYDAFDHHVHTVAPEGQTDDGTKGLAVLFCDLDGFKSINDRFGH”, the protein production is reported as “failed”.
For “LSHGDFELAVPGGPVAAYYAAPAGREQLPIVLVVQEIFGLHEHIKDVCRRLAHDGYLAVSVNLYQRQGDASRYDNIPGLVAELVSKVPDEQVHADLDASLAWAAAHGGDGARVGVTGFCWGGRTTWMYAARNPAVKAGVAWYGRLSSGHGPLIKQVPLDVAGSLHAPVLGLYGGKDESIPLDDVRAMEARLQQGGAPAQASRIVVYPQAGHAFLADYRPSYRAADAQDGWRRMLDWFALYL”, the protein production was “failed”.
With “LTGFQNYLNSIIDSMPSALIALDEQLYVTQWNQEASALSGTRLDEALNQPIFLAFEPLKPFLPQLKETVEQHTVTKVERVTWFKDEEPKHYALTFYPLMGGAGRGVVIRIDDITQRLSLEEMMVQSEKMLSVGGLAAGMAHEINNPLGAI” the protein production was “failed”.
With “LTLRSVFQPIFDKQHQVVGAEALVRIFTQHHTQIRPDLFFHSETFADDDKLNVERLSRAIHIRNFSLSPYRDTRLFLNVLPVAGEQFAYCDISSTLLATRLAELNIPHHRVVMELVEIESGDEGMLQMATEKLVANGFQIAIDDFGCKASTPERVAMLRPNIIKLDRQLLLDFMAGDCCGLLAGVQLAQKTGAHTVVEGIETAEQLAAMQKLDINMYQGYYLALP” the protein production was “failed”.
For “LTTAGYYAAVDWGTSSFRLWIIGEDGAVLAERRSAEGMTTAAKTGFHTILDGHLAAVSAPAHLPIIICGMAGARQGWKEAGYIETPAALAEIAGRATAIPDVDRDIRILPGLAQRDRRHPDVMRGEETQLLGAAAHLGAGSHLVCMPGTHSKWVRLADDRVEGFSTFMTGELFDTIARHTILSHAVAEADTFAAGSAAFTDAVSRTRENPALATNLLFSVRAGQLLHGTAAADARAQLSGTLIGLEIAGALAGSGSVDGVCLVGSGGLGTLYRTALESQGLNVRAVDADEAVRAGLSAAARAIWPL”, the protein production was “not failed”.
With “LTVHYDLQLYKINYKTQSPDGNLTIASGLVAMPIHPVGQVGIISYQHGTRFERNDVPSRNNEKNYIYLAAYGNSAGYMTVMPDYLGLGDNELTLHPYVQAETLASSSIDMLFAAKELANRLHYPISDKLYLAGYSEGGFSTIVMFEMLAKEYPDLPVSAVAPGSAPYGWEETMHFVMLEPGPRATAYLAYFFYSLQTYKSYWSGFDEIFAPPYNTLIPELMDGYHAVDEILQALPQDPLLIFQPKFSNGIISKTDRNTEILKINFNHYDFKPTAPLLLVGTKGDRDVPYAGAEMAYHSFRKYSDFVWIKSVSDALDHVQAHPFVLKEQVDFFKQFERQE” the protein production was “not failed”.
With “LTVTVTHSNEKHDLHVTSQQGSSEPVVQDLAQVVEEVIGVPQSFQKLIFKGKSLKEMETPLSALGIQDGCRVMLIGKKN” the protein production was “not failed”.
With “LVADASPFAMLEQAPDDLISHYDLTGRLLRVSPAWSRIIGGSVAEAAGRRTWDFIAPEDHPAVAAYYADLLREGAAPSSRLRMRVRHVAGDIRVLESRPMPIRNAEGVVTGFVDIARDITEQIETERRYQLALAQAHEA” the protein production was “failed”.

Reference: a protein production outcome set (Wang et al. 2014)
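Further: failed if final PepcDB status was selected cloned or expressed and not failed if soluble or beyond.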
